From patent publication US20160008398A1, “CONSTITUTIVE EXPRESSION OF COSTIMULATORY LIGANDS ON ADOPTIVELY TRANSFERRED T LYMPHOCYTES” (Memorial Sloan-Kettering Cancer Center, published 2016) come the findings set out here.

In this assay the target is CD28 (human, UniProt P10747). As to the kind of experiment: cell-based or functional assay.

B1: CD80 (ligand)
chain: VIHVTKEVKEVATLSCGHNVSVEELAQTRIYWQKEKKMVLTMMSGDMNIWPEYKNRTIFDITNNLSIVILALRPSDEGTYECVVLKYEKDAFKREHLAEVTLSVKADFPTPSISDFEIPTSNIRRIICSTSGGFPEPHLSWLENGEELNAINTTVSQDPETELYAVSSKLDFNMTTNHSFMCLIKYGHLRVNQTFNWNTTKQEHFPDNLLPSWAITLISVNGIFVICCLTYCFAPRCRERRRNERLRRESVRPV
With B1, the “Granzyme B recruitment to T-cell tumor cell junctions” value was 2.2 fold, the “NF-kB-luciferase signal in single OKT3-stimulated Jurkat T cells” value was 3.8 fold, the “expansion of CAR-transduced T cells stimulated weekly on LNCaP tumor monolayers” value was about 2 fold and the “expansion of CMV pp65-specific T cells restimulated with HLA-A*0201^+ pp65-transduced Caco-2 cells” value came to 209 fold. Moreover, the “expansion of Pz1^+ T cells cocultured weekly with LNCaP tumor monolayers” value came out at 1040 fold enrichment, the “expansion of T cells stimulated weekly with plate-bound OKT3” value is 237 fold greater proliferation and the “in vivo expansion of Pz1^+ T cells in PC3-PSMA tumor bearing mice (bioluminescence)” value came out at 41 fold higher photon count.
